For experiment [1], the target named is beak and feather disease virus capsid (Cap) protein, residues 14-247 (beak and feather disease virus (BFDV)). The experiment in a line: crystal structure; 10-mer crystals: 1.1 M ammonium sulfate, Tris pH 8.5, 0.1 M iron chloride, 290 K; space group P212121; no ssDNA.
For experiment [2] the target is unchanged. The experiment in a line: crystal structure; 60-mer co-crystallised with ssDNA oligonucleotides labelled with AlexaFluor488 and AlexaFluor647; space group F432.
Experiment [3] has the same target. The experiment in a line: crystal structure; 60-mer crystals: 0.8 M Na/K hydrogen phosphate pH 7.4, 290 K; space group F432; no ssDNA.

This is an account of results in paper PMC5059447.

With “beak and feather disease virus capsid (Cap) protein, residues 14-247 (domain or fragment)”, the stoichiometry N – broadly, a count of units in the complex or per binding partner – was determined as 10 in experiment [1], 60 in experiment [2] and 60 in experiment [3].
